The results in this text go back to patent publication US20260097113A1 (Pfizer, published 2026).

In test [1] the target is RSV A + RSV B bivalent composition (RSV subtype A; RSV subtype B). The test can be described thus: AM14 Fab titration by SEC; Target cycle; 1 M 25°C. In general terms: SEC sorts molecules by how far they enter the pores of the column.
For test [2] the target is unchanged. Nature of the test: AM14 Fab titration by SEC; Low-Fast cycle; 3 M 25°C.
Test [3] has the same target. The test can be described thus: AM14 Fab titration by SEC; High-Slow 1 cycle; 1 M 25°C.
The target is the same in test [4]. The test can be described thus: AM14 Fab titration by SEC; High-Slow 1 cycle; 3 M 25°C.
Test [5] has the same target. Nature of the test: AM14 Fab titration by SEC; High-Slow 2 cycle; 1 M 2-8°C.
Test [6] has the same target. The test can be described thus: AM14 Fab titration by SEC; Target cycle; 1 M 40°C (second value).
Test [7] has the same target. Nature of the test: AM14 Fab titration by SEC; Low-Fast cycle; 1 M 25°C (second value).
Test [8] shares this target. Nature of the test: AM14 Fab titration by SEC; composition of Table 17; Pre-lyo Prep 2, T0.
Test [9] concerns the target T1, RSV F protein of subtype A comprising a polypeptide of SEQ ID NO: 1 and a polypeptide of SEQ ID NO: 2 (RSV subtype A, UniProt P11209 137-513; P03420 26-109).
T1 construct: Stabilized prefusion F trimer made of three F2-F1 heterodimers; Produced recombinantly in CHO cells; also called RSV A; RSVA
T1 chain 1: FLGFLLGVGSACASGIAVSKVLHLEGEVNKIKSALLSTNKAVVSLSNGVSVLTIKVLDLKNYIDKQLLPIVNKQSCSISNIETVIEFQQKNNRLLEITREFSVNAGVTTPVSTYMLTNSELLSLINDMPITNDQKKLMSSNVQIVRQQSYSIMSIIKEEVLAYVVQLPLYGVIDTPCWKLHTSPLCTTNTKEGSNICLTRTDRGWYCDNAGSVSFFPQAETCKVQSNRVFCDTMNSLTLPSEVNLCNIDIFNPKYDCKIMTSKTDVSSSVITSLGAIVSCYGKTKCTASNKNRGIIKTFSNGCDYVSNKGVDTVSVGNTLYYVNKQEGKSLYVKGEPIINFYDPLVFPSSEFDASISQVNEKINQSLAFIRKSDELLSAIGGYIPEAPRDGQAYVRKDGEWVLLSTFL
T1 chain 2: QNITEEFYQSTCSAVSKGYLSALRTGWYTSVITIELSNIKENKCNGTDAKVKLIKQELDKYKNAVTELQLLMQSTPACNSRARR
The test can be described thus: AM14 ELISA; F12 (pH 8, 100 mM NaCl, 9.0% sucrose); T0.

The target of test [10] is T1, RSV F protein of subtype A comprising a …. Nature of the test: AM14 ELISA; F13 (pH 7, 100 mM NaCl, 4.5% sucrose); T0.
For test [11] the target is unchanged. Nature of the test: AM14 ELISA; F7 (pH 6, 100 mM NaCl, 0% sucrose); 2 wk 5°C. (An ELISA detects its analyte on a solid surface through an enzyme-linked reagent.)
Test [12] has the same target. Nature of the test: AM14 ELISA; F8 (pH 7, 50 mM NaCl, 0% sucrose); 1 wk 25°C.
For test [13] the target is unchanged. The test can be described thus: AM14 ELISA; F4 (pH 6, 50 mM NaCl, 4.5% sucrose); 1 wk 5°C.
For test [14] the target is unchanged. Nature of the test: AM14 ELISA; F10 (pH 7, 50 mM NaCl, 4.5% sucrose); 1 wk 25°C.
The target is the same in test [15]. Nature of the test: AM14 ELISA; F13 (pH 7, 100 mM NaCl, 4.5% sucrose); 1 wk 25°C.
The target is the same in test [16]. The test can be described thus: AM14 ELISA; F17 (pH 7, 50 mM NaCl, 4.5% trehalose); 2 wk 5°C.
The target is the same in test [17]. Nature of the test: AM14 ELISA; F18 (pH 7, 50 mM NaCl, 3% sucrose + 3% mannitol); 1 wk 5°C.
Test [18] shares this target. Nature of the test: AM14 ELISA; F19 (pH 7, 50 mM NaCl, 3% trehalose + 3% mannitol); 1 wk 25°C.

AM14 Fab: the Prefusion Content (%) in test [1] was determined as 65%; in [2] it was 66%; in test [3], 51%; in test [4] it was 53%; in [5], 68%; in test [6], 66%. Besides, the figures for the Prefusion Content (%) in test [7] and in test [8] were 71% and 81%, respectively.

B1: AM14 (trimeric prefusion specific antibody of the AM14 ELISA) (antibody, V domains shown)
VH: EVQLVESGGGVVQPGRSLRLSCAASGFSFSHYAMHWVRQAPGKGLEWVAVISYDGENTYYADSVKGRFSISRDNSKNTVSLQMNSLRPEDTALYYCARDRIVDDYYYYGMDVWGQGATVTVSS
VL: DIQMTQSPSSLSASVGDRVTITCQASQDIKKYLNWYHQKPGKVPELLMHDASNLETGVPSRFSGRGSGTDFTLTISSLQPEDIGTYYCQQYDNLPPLTFGGGTKVEIKR
notes: Antibody as used in the AM14 ELISA, detected with an HRP-labeled secondary antibody
Take B1: the “AM14 prefusion content (%), relative to standard” value in test [9] amounted to 100%; in test [10] it was 97%; in [11] it was 38%; in [12], 86%; in test [13] it was 76%; in test [14], 82%. Also, the “AM14 prefusion content (%), relative to standard” value in [15] amounted to 90%; in test [16], 64%; in [17] it was 56%; in [18] it was 75%.
